Experimental data: patent publication US20110262529A1

Experiments:
[1] = biological target: HLA-A*0201 (human), P04439
[2] = biological target: HLA-A*0201 (human), P04439; assay: T2 cell HLA-A*0201 stabilisation, affinity category by BL50

## AMWLLLLSI (modifications not checked) [pp1a-2207]
[1]
  BL50 (half-maximal binding level): 323 µM

## LLFITGNTL (modifications not checked) [pp1a-3745]
[1]
  BL50 (half-maximal binding level): 154 µM
[2]
  BL50: 100 to 200 µM

## QLSLPVLQV (modifications not checked) [pp1a-15]
[1]
  BL50 (half-maximal binding level): 75.7 µM
[2]
  BL50: < 100 µM

## VLAWLYAAV (modifications not checked) [pp1a-3444]
[1]
  BL50 (half-maximal binding level): 53 µM

## MLSRALKKV (modifications not checked) [pp1a-1288]
[1]
  BL50 (half-maximal binding level): 65.1 µM
[2]
  BL50: < 100 µM

## FLLPSLATV (modifications not checked) [pp1a-3616]
[1]
  BL50 (half-maximal binding level): 31.8 µM

## VLLSVLQQL (modifications not checked) [pp1a-3848]
[1]
  BL50 (half-maximal binding level): 102 µM
[2]
  BL50: 100 to 200 µM

## FLNRFTTTL (modifications not checked) [pp1a-3459]
[1]
  BL50 (half-maximal binding level): 39.6 µM

## VLGSLAATV (modifications not checked) [pp1a-4219]
[1]
  BL50 (half-maximal binding level): 53.3 µM
[2]
  BL50: < 100 µM

## KLSAGVEFL (modifications not checked) [pp1a-634]
[1]
  BL50 (half-maximal binding level): 59.8 µM
[2]
  BL50: < 100 µM

## KLNIKLLGI (modifications not checked) [pp1a-3816]
[1]
  BL50 (half-maximal binding level): 68.1 µM
[2]
  BL50: < 100 µM

## TLNEDLLEI (modifications not checked) [pp1a-445]
[1]
  BL50 (half-maximal binding level): 19.2 µM

## LLCVLAALV (modifications not checked) [pp1a-2755]
[1]
  BL50 (half-maximal binding level): 187 µM
[2]
  BL50: 100 to 200 µM

## CLDAGINYV (modifications not checked) [pp1a-2187]
[1]
  BL50 (half-maximal binding level): 3 µM
[2]
  BL50: < 100 µM

## TLGVLVPHV (modifications not checked) [pp1a-103]
[1]
  BL50 (half-maximal binding level): 3.1 µM
[2]
  BL50: < 100 µM

## YLSSVLLAL (modifications not checked) [pp1a-1652]
[1]
  BL50 (half-maximal binding level): 6.7 µM
[2]
  BL50: < 100 µM

## FLITGVFDI (modifications not checked) [pp1a-651]
[1]
  BL50 (half-maximal binding level): 8.4 µM

## MLLTFLTSL (modifications not checked) [pp1a-3560]
[1]
  BL50 (half-maximal binding level): 47.1 µM
[2]
  BL50: < 100 µM

## SLQVCVQTV (modifications not checked) [pp1a-1139]
[1]
  BL50 (half-maximal binding level): 4.9 µM
[2]
  BL50: < 100 µM

## ALSGVFCGV (modifications not checked) [pp1a-2990]
[1]
  BL50 (half-maximal binding level): 6.2 µM
[2]
  BL50: < 100 µM
